# Source: patent publication US20250290928A1, “METHOD, KIT AND DEVICE FOR DETECTING EXTRACELLULAR VESICLES” (priority 2022, published 2025)
# No end group written: not given here. TQ3 = quencher
# Molecular target: T1, MMP14 in the MDA-MB-231-derived extracellular vesicles (Homo sapiens, UniProt P50281)
# T1 construct: in terms of intact MMP14 with a molecular weight of 70 kDa
# Experiment: Digital detection through MMP14 activity of MDA-MB-231-derived extracellular vesicles captured on Tim4-immobilized magnetic particles
# Type: biochemical
# Settings: Table 56, MB231 Present, 24 hours at 23° C.
# Method: Magnetic particles included in PS Capture (trademark) Exosome Flow Cytometry Kit (manufactured by FUJIFILM Corporation) were used as magnetic particles. In this kit, binding of an extracellular vesicle to a Tim4-immobilized magnetic particle is utilized.
# 800 μL of Exosome Capture Beads were aliquoted in a 1.5 mL microtube, vortexed for 5 seconds, spun down in a benchtop centrifuge, and then placed on a magnetic stand. After still standing for 1 minute, the supernatant was removed by pipetting. 1 mL of x1 WB (+Enhancer) prepared from x10 Washing Buffer and x100 Exosome Binding Enhancer included in the kit was added to the residue, the mixture was vortexed for 5 seconds, spun down in a benchtop centrifuge, and then placed on a magnetic stand. After still standing for 1 minute, the supernatant was removed by pipetting. This operation was repeated three times.
# 800 μL of the buffer (4) was added to the magnetic particle pellets, and the mixture was vortexed for 30 seconds to provide a homogeneous magnetic particle suspension. 60 μL of the suspension was aliquoted into each of twelve 1.5 mL microtubes.
# The concentration of the solution is 4 μg/mL. […] Further, the concentration of the x1/5 solution was set to be the highest concentration, and 10-fold dilution was performed in four stages. Thus, 10-fold dilution samples in a total of five stages were obtained.
# The magnetic particle suspension that had been aliquoted in each amount of 60 μL in the section “(Preparation of Particles)” was vortexed for 5 seconds, spun down in a benchtop centrifuge, and then placed on a magnetic stand. After still standing for 1 minute, the supernatant was removed by pipetting.
# After that, the above-mentioned mixed solution was spun down in a benchtop centrifuge, then placed on a magnetic stand, and left to stand still for 1 minute. After that, the supernatant was removed by pipetting, 300 μL of the buffer (4) was added to the residue, and the mixture was vortexed for 5 seconds. The mixture was spun down in a benchtop centrifuge, then placed on a magnetic stand, and left to stand still for 1 minute. The same operation was further repeated twice.
# For detection of MMP14 activity, 1 mM Custom #1 and Custom #2 were diluted with the buffer (4) to prepare MMP14 detection solutions containing 5 μM Custom #1 and Custom #2, respectively.
# The supernatant of the mixed solution of the magnetic particles and the extracellular vesicles subjected to the washing was removed by pipetting, and 60 μL of each of the MMP14 detection solutions was added to each of the magnetic particle pellets to prepare a reaction solution for wells.
# Magnosphere (trademark) MS300/Streptavidin (manufactured by JSR Corporation) (hereinafter abbreviated as “MS300S”) was used as magnetic particles. The magnetic particles were modified with Tim4 through use of Biotin-labeled Exosome Capture included in MagCapture (trademark) Exosome Isolation Kit PS Ver. 2 (manufactured by FUJIFILM Corporation) (hereinafter abbreviated as “PS2”) to prepare Tim4-immobilized magnetic particles.
# 10 μL of Biotin-labeled Exosome Capture was added to the suspension, and the mixture was vortexed for 5 seconds so that the contents were mixed. The mixture was subjected to a reaction for 10 minutes while the contents were mixed by inversion at room temperature with a rotator. After that, the resultant was spun down in a benchtop centrifuge, and then placed on a magnetic stand. After still standing for 1 minute, the supernatant was removed by pipetting. 500 μL of x1 I/WB (±Enhancer) was added to the residue, and the mixture was vortexed for 5 seconds, spun down in a benchtop centrifuge, and then placed on a magnetic stand. After still standing for 1 minute, the supernatant was removed by pipetting. This operation was further repeated twice. […]
substance,measurement,setting,value
TAMRA-GGPLGLAGGK(TQ3) ({TAMRA}-GGPLGLAGGK(TQ3)) [Custom #2T],Particle Expected value λ,Particle MS300C,0.2937
same,Particle Positive ratio,Particle MS300C,0.2545
same,Particle Expected value λ,Particle Simoa,0.07748
same,Particle Positive ratio,Particle Simoa,0.07456
